Columns and labels:
Assay in all cases: SPR Biacore 8K+, 37 C; mAb-4894 captured by anti-Fab, antigen as analyte; 1:1 Langmuir fit
Human IL27RA = target: T1, Human IL27RA (human, UniProt Q6UWB1 33-516)
T1 construct: Soluble analyte in SPR and antigen in ELISA/screens; also called huIL27R
T1 sequence: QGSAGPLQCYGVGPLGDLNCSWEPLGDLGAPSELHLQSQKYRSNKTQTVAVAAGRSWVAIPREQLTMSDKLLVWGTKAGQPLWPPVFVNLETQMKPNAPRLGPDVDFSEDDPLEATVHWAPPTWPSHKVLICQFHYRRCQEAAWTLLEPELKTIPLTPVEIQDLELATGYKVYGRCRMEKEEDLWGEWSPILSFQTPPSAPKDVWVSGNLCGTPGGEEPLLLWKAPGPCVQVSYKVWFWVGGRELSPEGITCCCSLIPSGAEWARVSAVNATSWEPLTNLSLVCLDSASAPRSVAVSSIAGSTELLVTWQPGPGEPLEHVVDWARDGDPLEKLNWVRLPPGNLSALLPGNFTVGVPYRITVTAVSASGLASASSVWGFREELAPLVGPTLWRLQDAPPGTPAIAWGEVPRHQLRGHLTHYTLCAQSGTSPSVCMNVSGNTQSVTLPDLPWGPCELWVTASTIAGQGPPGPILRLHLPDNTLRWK
Description: (§1) The crossreactivity of mAb-4894 to human and cynomolgus monkey antigens, gp130 (human—SEQ ID NO: 45, cynomolgus—SEQ ID No: 46) and IL27RA (human—SEQ ID NO: 41, cynomolgus—SEQ ID No: 42), was measured by surface plasmon resonance by anti-FAB capture of mAb-4894 (containing arms of anti-IL27RA-4880 EE and anti-gp130-4875 RR) on a biacore chip. Human or cynomolgus monkey IL27RA or gp130 was flowed over the chip and on and off rates were determined, and the affinity constants calculated.
(§2) Flow cell 1 for each channel was used as a reference flow cell. After antibody capture, three-fold dilution series of cytokines with concentrations ranging from 405 nM to 15 nM for huGP130 and cyGP130 and 45 nM to 1.67 nM for huIL27R and cyIL27R or HBS-EP+ buffer were injected over the sensor surface for 60 seconds at 50 μl/minute. The dissociation was monitored for 600 seconds and the surface was regenerated with 2 injections of 10 mM Glycine pH 1.7 at 30 μl/minute. The data was double referenced (Myszka, D., J. Mol. Recognit 1999; 279-284). Binding affinities and rate constants were determined for human and cyno GP130 and IL27R by fitting the resulting sensorgram data to a 1:1 Langmuir model in BIAcore Insight Evaluation software version 3.0.12.15655 (Cytiva).

Cynomolgus monkey gp130 = target: T2, Cynomolgus monkey gp130 (cynomolgus monkey, UniProt P40189 23-619 (human entry), limits assumed)
T2 construct: Soluble SPR analyte; also called Cyno GP130; cyGP130
T2 chain: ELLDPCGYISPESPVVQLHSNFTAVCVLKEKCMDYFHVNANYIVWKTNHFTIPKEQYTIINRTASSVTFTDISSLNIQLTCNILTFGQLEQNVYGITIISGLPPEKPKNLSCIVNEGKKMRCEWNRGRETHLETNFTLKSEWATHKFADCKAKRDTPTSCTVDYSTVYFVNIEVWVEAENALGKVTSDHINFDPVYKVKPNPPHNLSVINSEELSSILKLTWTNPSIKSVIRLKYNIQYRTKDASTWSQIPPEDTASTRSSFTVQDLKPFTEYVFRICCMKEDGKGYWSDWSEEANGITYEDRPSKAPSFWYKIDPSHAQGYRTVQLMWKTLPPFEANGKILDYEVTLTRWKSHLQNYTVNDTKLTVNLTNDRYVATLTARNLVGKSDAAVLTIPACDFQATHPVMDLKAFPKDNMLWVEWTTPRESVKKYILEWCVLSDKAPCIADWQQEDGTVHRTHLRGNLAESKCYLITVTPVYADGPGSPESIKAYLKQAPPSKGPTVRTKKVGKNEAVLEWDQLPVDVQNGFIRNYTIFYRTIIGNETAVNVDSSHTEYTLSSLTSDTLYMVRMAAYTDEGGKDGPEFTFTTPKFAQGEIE
Description: as §1, §2

Cynomolgus monkey IL27RA = target: T3, Cynomolgus monkey IL27RA (cynomolgus monkey)
T3 construct: Soluble SPR analyte; also called Cyno IL27R; cyIL27R
T3 chain: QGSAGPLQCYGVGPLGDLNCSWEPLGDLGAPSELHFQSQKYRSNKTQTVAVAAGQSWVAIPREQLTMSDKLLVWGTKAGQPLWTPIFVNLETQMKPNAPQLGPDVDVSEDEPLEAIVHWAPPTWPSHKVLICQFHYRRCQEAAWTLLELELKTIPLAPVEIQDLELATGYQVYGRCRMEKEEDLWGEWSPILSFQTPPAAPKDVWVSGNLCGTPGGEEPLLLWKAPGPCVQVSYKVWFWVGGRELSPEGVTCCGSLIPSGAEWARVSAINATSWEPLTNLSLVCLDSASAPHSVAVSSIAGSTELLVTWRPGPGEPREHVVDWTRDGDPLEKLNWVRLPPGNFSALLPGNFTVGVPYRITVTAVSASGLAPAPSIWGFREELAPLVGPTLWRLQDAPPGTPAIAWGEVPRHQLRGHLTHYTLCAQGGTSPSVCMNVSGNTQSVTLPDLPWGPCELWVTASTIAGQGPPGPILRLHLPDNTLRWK
Description: as §1, §2

Kd (Human IL27RA): 0.11 nM
koff (Human IL27RA): 0.00011 s⁻¹
kon (Human IL27RA): 998000 M⁻¹ s⁻¹
Kd (Cynomolgus monkey gp130): 188 nM
koff (Cynomolgus monkey gp130): 0.0403 s⁻¹
kon (Cynomolgus monkey gp130): 215000 M⁻¹ s⁻¹
Kd (Cynomolgus monkey IL27RA): 1.68 nM
koff (Cynomolgus monkey IL27RA): 0.00195 s⁻¹
kon (Cynomolgus monkey IL27RA): 1.17e+06 M⁻¹ s⁻¹
B1: mAb-4894 anti-IL27RA/gp130 bispecific antibody (bispecific antibody, human IgG1)
heavy 1: EVQLVESGGGLVQPGGSLRLSCAASGFTFEYFGLQWVRQAPGKGLEWIGYTSSGGNYEYYEETLKGRFTISRDNAKNSLYLQMNSLRAEDTAVYYCARTKTGDYWGQGTLVTVSSASTKGPSVFPLAPSSKSTSGGTAALGCLVKDYFPEPVTVSWNSGALTSGVHTFPAVLQSSGLYSLSSVVTVPSSSLGTQTYICNVNHKPSNTKVDKKVEPKSCEKTHTCPPCPAPEAAGAPSVFLFPPKPKDTLMISRTPEVTCVVVDVSHEDPEVKFNWYVDGVEVHNAKTKPREEQYNSTYRVVSVLTVLHQDWLNGKEYKCKVSNKALPAPIEKTISKAKGQPREPQVYTLPPSREEMTKNQVSLTCEVKGFYPSDIAVEWESNGQPENNYKTTPPVLDSDGSFFLYSKLTVDKSRWQQGNVFSCSVMHEALHNHYTQKSLSLSPGK
light 1: DIQMTQSPSSLSASVGDRVTITCRASQDIGNSLTWYQQKPGKAPKRVIFGATGLAAGVPSRFSGSGSGTDFTLTISSLQPEDFATYYCLQSKQYPYTFGQGTKLEIKRTVAAPSVFIFPPSDEQLKSGTASVVCLLNNFYPREAKVQWKVDNALQSGNSQESVTEQDSKDSTYSLSSTLTLSKADYEKHKVYACEVTHQGLSSPVTKSFNRGEC
heavy 2: QVQLVQSGAEVKKPGSSVKVSCKVSGGSISSYYWSWVRQAPGQGLEWIGRIYITGNTNYNPSLKDRVTMTVDTSTSTHYMELSSLRSEDTAVYYCAREGPKLGIFDYWGQGTLVTVSSASTKGPSVFPLAPSSKSTSGGTAALGCLVKDYFPEPVTVSWNSGALTSGVHTFPAVLQSSGLYSLSSVVTVPSSSLGTQTYICNVNHKPSNTKVDKKVEPKSCRKTHTCPPCPAPEAAGAPSVFLFPPKPKDTLMISRTPEVTCVVVDVSHEDPEVKFNWYVDGVEVHNAKTKPREEQYNSTYRVVSVLTVLHQDWLNGKEYKCKVSNKALPAPIEKTISKAKGQPREPQVYTLPPSREEMTKNQVSLTCLVKGFYPSDIAVEWESNGQPENNYKTTPPVLDSDGSFFLYSRLTVDKSRWQQGNVFSCSVMHEALHNHYTQKSLSLSPGK
light 2: DIQMTQSPSSLSASVGDRVTITCRASQSVSSSYLAWYQQKPGKAPKLLIYGTESRATGVPSRFSGSGSGTDFTLTISSLQPEDFATYYCQQYGGYPTFGGGTKVEIKRTVAAPSVFIFPPSDEQLKSGTASVVCLLNNFYPREAKVQWKVDNALQSGNSQESVTEQDSKDSTYSLSSTLTLSKADYEKHKVYACEVTHQGLSSPVTKSFNRGEC
notes: Human IgG1 EE/RR heterodimer with L234A, L235A, G237A (EU); also called GBT-IL27R-4894; GBT-IL-27R-4894

— patent publication US20240052047A1 (Pfizer, published 2024)
